For five molecules, stimulation of the rate of substrate hydrolysis by rEP with pVIc peptide, rate of substrate hydrolysis, fluorescence assay (pmol substrate min^-1) and activation of rEP, rate of hydrolysis of (Leu-Arg-Gly-Gly-NH)2-rhodamine results are on record in US5543264.

The target of assay [1] is purified recombinant Ad2 proteinase (rEP) (human adenovirus type 2).
Assay [2] concerns the target (Leu-Arg-Gly-Gly-NH)2-rhodamine.
Assay [3] has as its target purified recombinant Ad2 proteinase (rEP) (human adenovirus type 2). The source holds these as a separate data set.

Where only a bound is given, the exact number is not on record here.

As for polyaspartic acid, the stimulation of the rate of substrate hydrolysis by rEP with pVIc peptide in assay [1] turned out to be 5 fold.

On to polyglutamic acid, for which the stimulation of the rate of substrate hydrolysis by rEP with pVIc peptide in assay [1] was 8.9 fold.

polylysine: the stimulation of the rate of substrate hydrolysis by rEP with pVIc peptide in assay [1] was under 1 fold.

Consider “purified recombinant Ad2 proteinase (rEP) (enzyme)”, for which, in assay [2], the rate of substrate hydrolysis, fluorescence assay (pmol substrate min^-1) was determined as 25.6.

In the case of GVQSLKRRRCF [Ad2 pVI-c peptide cofactor (11-amino acid carboxy terminus of pVI)], the activation of rEP, rate of hydrolysis of (Leu-Arg-Gly-Gly-NH)2-rhodamine in assay [3] is 2.76 pmol/min.
